Where two headings read alike, the source gives them in different places.
T1: PACAP38 (Pituitary Adenylate Cyclase-Activating Polypeptide, 38 amino acids) (human, not fully specified; the C-terminal lysine is amidated)
T1 peptide: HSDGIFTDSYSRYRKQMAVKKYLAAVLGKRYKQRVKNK

T2: PACAP27 (Pituitary Adenylate Cyclase-Activating Polypeptide, 27 amino acids) (human, the C-terminal leucine is amidated)
T2 peptide: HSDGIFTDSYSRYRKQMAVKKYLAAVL

T3: VIP (Vasoactive Intestinal Peptide) (human)
T3 construct: also called human VIP
T3 peptide: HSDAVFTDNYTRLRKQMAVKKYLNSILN

T4: PAC1-R on PAC1-R-expressing PC-12 cells (UniProt P32215 20-523)
T4 construct: whole, on cells; also called PAC1 receptor
T4 sequence (looked up): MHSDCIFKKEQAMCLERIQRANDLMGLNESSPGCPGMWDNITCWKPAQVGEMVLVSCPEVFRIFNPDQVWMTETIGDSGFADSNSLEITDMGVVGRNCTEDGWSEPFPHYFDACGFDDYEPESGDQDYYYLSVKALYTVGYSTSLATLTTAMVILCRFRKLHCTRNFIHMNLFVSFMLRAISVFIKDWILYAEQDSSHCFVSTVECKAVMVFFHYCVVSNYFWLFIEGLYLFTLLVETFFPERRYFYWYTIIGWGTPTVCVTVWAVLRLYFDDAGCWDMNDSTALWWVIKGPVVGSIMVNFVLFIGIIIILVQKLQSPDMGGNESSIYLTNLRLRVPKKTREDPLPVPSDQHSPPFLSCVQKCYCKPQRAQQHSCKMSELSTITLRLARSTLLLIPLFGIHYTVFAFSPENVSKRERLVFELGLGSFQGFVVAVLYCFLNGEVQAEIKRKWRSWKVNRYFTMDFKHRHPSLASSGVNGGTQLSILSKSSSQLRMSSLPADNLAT


Tests used:
[1] = target: T1, PACAP38 (Pituitary Adenylate …); experiment: cell-based or functional assay
[2] = target: T2, PACAP27 (Pituitary Adenylate …); experiment: cell-based or functional assay
[3] = target: T1, PACAP38 (Pituitary Adenylate …); experiment: cell-based or functional assay
[4] = target: T1, PACAP38 (Pituitary Adenylate …); experiment: cell-based or functional assay
[5] = target: T1, PACAP38 (Pituitary Adenylate …); experiment: HTRF binding assay, antibody dilution series on 35 nM biotinylated PACAP38
Description: In parallel, 10 μl of an antibody dilution series (highest final concentration of 100 nM) were incubated with 10 μl of N-terminal or C-terminal biotinylated PACAP38 (35 nM final) alone, or in combination with either PACAP27 (350 nM final) or VIP (350 nM final), i.e., 10× PACAP27 or 10× VIP, respectively, in a HTRF plate. 20 μl of Eu³⁺ cryptate labeled anti-hu Fc donor and 20 μl of d2-labeled streptavidin acceptor were added to each well and incubated for 1 hour at room temperature. Fluorescence was measured at 620 and 665 nm with a delay of 300 usec.
EC₅₀ values, i.e. the concentration of an antibody that yields a response halfway between the baseline and the maximum value within a specified time period, were computed for each antibody based upon their binding curves and are shown in Table 1 below. […] A humanized form of antibody Ab1 identified by an appended “.H”, i.e., Ab1.H also bound PACAP38 with high affinity.

[6] = target: T1, PACAP38 (Pituitary Adenylate …); experiment: SPR (ProteOn XPR36), antibody amine-coupled, peptide analyte, 1:1 Langmuir fit
Description: (§1) Binding affinities of monoclonal antibodies for human PACAP were estimated using SPR on the PROTEON™ XPR36 (Bio-Rad, Hercules, CA). Antibody was immobilized to the surface of general amine coupling (“GLC” or “GLM”) Chips (Bio-Rad, Hercules, CA). […] Antigen (ranging from 1.23 nM to 100 nM) was typically run sequentially with association times of 2-4 minutes and dissociation times of 3-120 minutes grouped with the PROTEON™ Manager Software (v3.1.0.6 (Bio-Rad, Hercules, CA)) and fitted using a 1:1 Langmuir binding model. Surfaces were regenerated between analyte queries using 0.85% Phosphoric Acid.

[7] = target: T2, PACAP27 (Pituitary Adenylate …); experiment: as above
Description: as §1

[8] = target: T1, PACAP38 (Pituitary Adenylate …); experiment: inhibition of 30 nM biotinylated PACAP38 binding to PAC1-R-expressing PC-12 cells, Eu-streptavidin TRF
Description: To identify antibodies that block PACAP38 binding to PAC1-R-expressing cells, adherent PC-12 cells (ATCC, Manassas, VA) expressing PAC1-R were used in a Europium-based PAC1-R-expressing cells binding assay. Antibody solutions were incubated with N-terminal biotinylated PACAP38 at 10× the final concentration (100 nM or 30 nM) for 1 hr, then added to PC-12 cells that were plated 24 hrs prior in black clear bottom 96 well plates (COSTAR™, Corning Incorporated, Corning, NY) and further incubated for 1 hr at room temperature. After three washes, the cells were incubated with 20 μl Europium-labeled streptavidin (PerkinElmer, Waltham, MA) for 1 hr at room temperature. Cells were washed three times, then 20 μl DELFIA® Enhancement solution (PerkinElmer, Waltham, MA) was added to each well and incubated for 15 minutes with gentle shaking. Plates were read (Time Resolved Fluorescence (“TRF”)) on SPECTRAMAX® (Molecular Devices, Sunnyvale, CA) plate reader.
FIGS. 14A-14H are representative of the inhibition curves obtained by this method (results are shown for Ab10, Ab20, Ab21, Ab1.H, Ab10.H, Ab21.H, Ab22, and Ab23, respectively) wherein the PAC1-R expressing cells were PC-12 cells.

[9] = target: T3, VIP (Vasoactive Intestinal Peptide); experiment: SPR (ProteOn XPR36), antibody amine-coupled, peptide analyte, 1:1 Langmuir fit; SPR, direct binding of VIP to the antibody; weak, KD 3.1E-07 M
[10] = target: T1, PACAP38 (Pituitary Adenylate …); experiment: cell-based or functional assay
[11] = target: T2, PACAP27 (Pituitary Adenylate …); experiment: cell-based or functional assay
[12] = target: T3, VIP (Vasoactive Intestinal Peptide); experiment: SPR (ProteOn XPR36), antibody amine-coupled, peptide analyte, 1:1 Langmuir fit
[13] = target: T2, PACAP27 (Pituitary Adenylate …); experiment: inhibition of 0.1 nM 125I-PACAP27 binding to membranes with human PAC1-R long isoform, filter binding
Description: To identify antibodies that block PACAP27 binding to PAC1-R, antibodies at an initial concentration of 30 nM were diluted in incubation buffer (50 mM Hepes pH 7.4, 1 mM CaCl₂, 5 mM MgCl₂, 0.2% BSA) and serial 1:3 dilutions were performed. Antibody dilutions (30 nM, 10 nM, 3 nM, 1 nM, 0.3 nM, 0.1 nM, 0.03 nM, 0.01 nM, 0.003 nM and 0.001 nM) were then mixed and pre-incubated at 25° C. for 30 minutes with 0.1 nM of ¹²⁵I-labelled PACAP27 in incubation buffer. The antibody: ¹²⁵I-labelled PACAP27 mixture was then added to 0.5 μg aliquots of cell membranes derived from Chem-1 cells expressing human recombinant PAC1-R long isoform in incubation buffer. The mixture was then incubated for 1 hour at 25° C. Following incubation, the samples were filtered and washed. Afterward, the filters were counted to quantitate ¹²⁵I-labelled PACAP27. As an experimental control, non-specific binding to the cell membranes was estimated using 0.1 μM of […] PACAP27.

[14] = target: T4, PAC1-R on PAC1-R-expressing PC-12 cells; experiment: cell surface binding assay (DELFIA TRF): antibody pre-incubated with PACAP38, added to PAC1-R-expressing PC-12 cells, detected with Eu anti-human IgG
Description: Cells were initially seeded at 1×10⁵ cells/well in a solution of complete RPMI (“cRPMI”: RPMI medium supplemented with 10% sterile heat-inactivated FBS and 1% sterile antibiotic/antimycotic)+10% FBS, and the plates were allowed to incubate overnight at 37° C. On the day of the binding assay, antibodies at an initial concentration of 15 μg/ml were diluted at a 1:3 ratio in DELFIA® binding buffer (50 mM Tris, 150 mM NaCl, 0.1% azide, 2% horse serum) (Perkin-Elmer, Waltham, MA) to a total volume of 60 μL in a separate 96 well round bottom plate. PACAP38 was prepared for the binding assay by diluting it in DELFIA® binding buffer to a concentration of 200 nM, and then 60 μl of the diluted PACAP38 was added to each of the antibody-containing wells to form antibody: antigen complexes. Following addition of PACAP38, the antibody: antigen complexes were incubated at room temperature on a shaker for 1 hour. Separately, the PC-12 cells were prepared for addition of antibody: antigen complexes by washing the cells two times with DELFIA® wash buffer (50 mM Tris, 150 mM NaCl, 0.1% Azide) (Perkin-Elmer, Waltham, MA). After washing the cells two times and following the 1 hour room temperature incubation of the antibody: antigen complexes, 50 μl of the antibody: antigen complex was added to each well containing cells. The mixtures of cells and antibody: antigen complexes were then incubated for 30 minutes at room temperature. Following this 30 minute incubation, each mixture was washed two times with DELFIA® wash buffer (Perkin-Elmer, Waltham, MA).
DELFIA® Europium labeled anti-human IgG detection reagent (Cat #1244-330, Perkin-Elmer, Waltham, MA) was diluted to a concentration of 300 ng/ml in DELFIA® Binding Buffer. Following dilution, 50 μl of the anti-human IgG detection reagent was added to each well containing cells, and a 30 minute incubation at room temperature followed this addition of IgG detection reagent. After completion of the 30 minute room temperature incubation, the cells were then washed two times with DELFIA® wash buffer. Next, 50 μl of DELFIA® Enhancement Solution (Cat #1244-105, Perkin-Elmer, Waltham, MA) was added to each well containing cells for a final 15 minute room temperature incubation with shaking. The plates were then read (TRF, excitation 330 nm, emission 620 nm) on a SPECTRAMAX® (Molecular Devices, Sunnyvale, CA) plate reader.

Row | Inhibition of 0.1 nM PACAP38-induced PAC1-R mediated cAMP increase IC50 (pM) [1] [pM] | Inhibition of 0.1 nM PACAP27-induced PAC1-R mediated cAMP increase IC50 (pM) [2] [pM] | Inhibition of 5 nM PACAP38-induced human VPAC1-R mediated cAMP increase IC50 (pM) [3] [pM] | Inhibition of 1 nM PACAP38-induced human VPAC2-R mediated cAMP increase IC50 (pM) [4] [pM] | Kd [6] [nM] | koff [6] [s⁻¹] | kon [6] [M⁻¹ s⁻¹] | Kd [7] [nM] | koff [7] [s⁻¹] | kon [7] [M⁻¹ s⁻¹] | IC50 [8] [nM] | Kd [12] [nM] | koff [12] [s⁻¹] | kon [12] [M⁻¹ s⁻¹] | IC50 [13] [nM] | Binder | further results
1 | 239 | 140 | 2850 | 5220 | ≤ 0.027 | ≤ 1e-05 | 370000 | ≤ 0.013 | ≤ 1e-05 | 790000 | 20.3 | – | – | – | – | Ab21 (antibody, human IgG1, kappa, N297A, V domains shown, Full-length anti-PACAP antibody; rabbit/human chimeric) VH: QSVEESGGRLVTPGTPLTLTCTVSGIDLSSYYMTWVRQAPGKGLEWVGFIDAGGSAYYATWAKGRFTISKASTTVDLKITSPTTEDTATYFCARDLDLWGPGTLVTVSS VL: AAVLTQTPSPVSAAVGGTVSISCKSSESVYGDYLAWFQQKPGQPPKQLIYDASTLASGVPSRFKGSGSGTQFTLTISGVQCDDAATYYCAGGYVSAGVAFGGGTEVVVKR | EC50 [5]: 0.84 nM; Kd [9]: 310 nM; koff [9]: 0.00054 s⁻¹; kon [9]: 1700 M⁻¹ s⁻¹
2 | – | – | 1520 | 301 | ≤ 0.022 | ≤ 1e-05 | 450000 | ≤ 0.059 | ≤ 1e-05 | 170000 | – | 91 | 0.013 | 140000 | 0.21 | Ab10.H3 (antibody, human IgG1, kappa, N297A, Full-length humanized variant of Ab10) heavy: not shown light: DIQLTQSPSTLSASVGDRVTITCQSSESVYGNYLAWFQQKPGKAPKFLIYEASKLESGVPSRFSGSGSGTEFTLTISSLQPDDFATYYCAGGDISEGVAFGGGTKVEIKRTVAAPSVFIFPPSDEQLKSGTASVVCLLNNFYPREAKVQWKVDNALQSGNSQESVTEQDSKDSTYSLSSTLTLSKADYEKHKVYACEVTHQGLSSPVTKSFNRGEC | Inhibition of 0.1 nM PACAP38-induced PAC1-R mediated cAMP increase IC50 (pM) [10]: 30.7 pM; Inhibition of 1 nM PACAP27-induced PAC1-R mediated cAMP increase IC50 (pM) [11]: 321 pM; binding result [14]: no binding (tested: about 70 nM)
3 | 246 | 204 | 2100 | 1510 | ≤ 0.021 | ≤ 1e-05 | 480000 | ≤ 0.016 | ≤ 1e-05 | 630000 | 12.7 | 440 | 0.059 | 140000 | 0.39 | Ab21.H (antibody, human IgG1, kappa, N297A, Full-length humanized variant of Ab21) heavy: not shown light: DAQLTQSPSTLSASVGDRVTITCKSSESVYGDYLAWFQQKPGKAPKQLIYDASTLASGVPSRFSGSGSGTEFTLTISSLQPDDFATYYCAGGYVSAGVAFGGGTKVEIKRTVAAPSVFIFPPSDEQLKSGTASVVCLLNNFYPREAKVQWKVDNALQSGNSQESVTEQDSKDSTYSLSSTLTLSKADYEKHKVYACEVTHQGLSSPVTKSFNRGEC | –
